Patent publication US20260265379A1 (IMCHECK THERAPEUTICS, published 2026)

Key:
recombinant human BTN3A1 = molecular target: T1, recombinant human BTN3A1 (human, UniProt O00481 30-254); assay: SPR
T1 construct: Soluble form of the antigen used in SPR; also called rhBTN3A1; recombinant BTN3A1 protein

recombinant human PD-1 = molecular target: T2, recombinant human PD-1 (human, UniProt Q15116 25-167, limits assumed); assay: SPR
T2 construct: Soluble antigen in SPR; also called rhPD-1

[1] = molecular target: T3, PD-1 at the surface of Jurkat-PD-1 cells (human, UniProt Q15116 25-288); assay: cell-based or functional assay
[2] = molecular target: T4, BTN3A1 at the surface of HEK-BTN3A1 cells (human, UniProt O00481 30-513); assay: flow cytometry, HEK-BTN3A1 cells
T4 construct: HEK 293T BTN2A/BTN3A KO cells transduced with a BTN3A1 expressing vector

[3] = molecular target: T3, PD-1 at the surface of Jurkat-PD-1 cells; assay: flow cytometry, Jurkat-PD-1 cells
recombinant human PD-L1 = molecular target: T5, recombinant human PD-L1 (human, UniProt Q9NZQ7 19-239, limits assumed); assay: SPR
T5 construct: Soluble antigen in SPR; also called rhPD-L1

[4] = molecular target: T6, PD-L1 at the surface of transduced cells (UniProt Q9NZQ7 19-290, limits assumed); assay: flow cytometry, CHO-PD-L1 cells
T6 construct: whole, on cells; CHO-PD-L1 cells in flow cytometry, Raji-PD-L1 cells in the reporter assay; also called CHO-PD-L1; Raji-PD-L1
T6 sequence (Q9NZQ7 19-290 limits assumed): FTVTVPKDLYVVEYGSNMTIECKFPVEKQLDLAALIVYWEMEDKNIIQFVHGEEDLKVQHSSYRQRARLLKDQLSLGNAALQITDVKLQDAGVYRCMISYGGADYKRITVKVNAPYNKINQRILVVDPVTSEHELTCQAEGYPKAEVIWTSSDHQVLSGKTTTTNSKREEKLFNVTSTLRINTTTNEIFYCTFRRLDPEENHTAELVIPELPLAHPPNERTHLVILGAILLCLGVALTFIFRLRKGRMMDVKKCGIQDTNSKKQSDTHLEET

T3 sequence (Q15116 25-288): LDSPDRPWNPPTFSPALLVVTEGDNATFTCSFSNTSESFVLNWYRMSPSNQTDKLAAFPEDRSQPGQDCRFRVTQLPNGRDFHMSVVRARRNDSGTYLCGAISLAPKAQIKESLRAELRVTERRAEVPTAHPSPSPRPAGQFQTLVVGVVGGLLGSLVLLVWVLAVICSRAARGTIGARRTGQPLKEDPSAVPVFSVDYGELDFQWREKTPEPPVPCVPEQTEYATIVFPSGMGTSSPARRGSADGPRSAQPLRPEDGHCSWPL
T2 sequence (Q15116 25-167 limits assumed): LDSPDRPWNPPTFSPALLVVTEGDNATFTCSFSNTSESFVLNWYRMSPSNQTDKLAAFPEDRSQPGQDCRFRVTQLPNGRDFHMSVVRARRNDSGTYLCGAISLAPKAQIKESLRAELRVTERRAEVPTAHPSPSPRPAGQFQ
T4 sequence (O00481 30-513 limits assumed): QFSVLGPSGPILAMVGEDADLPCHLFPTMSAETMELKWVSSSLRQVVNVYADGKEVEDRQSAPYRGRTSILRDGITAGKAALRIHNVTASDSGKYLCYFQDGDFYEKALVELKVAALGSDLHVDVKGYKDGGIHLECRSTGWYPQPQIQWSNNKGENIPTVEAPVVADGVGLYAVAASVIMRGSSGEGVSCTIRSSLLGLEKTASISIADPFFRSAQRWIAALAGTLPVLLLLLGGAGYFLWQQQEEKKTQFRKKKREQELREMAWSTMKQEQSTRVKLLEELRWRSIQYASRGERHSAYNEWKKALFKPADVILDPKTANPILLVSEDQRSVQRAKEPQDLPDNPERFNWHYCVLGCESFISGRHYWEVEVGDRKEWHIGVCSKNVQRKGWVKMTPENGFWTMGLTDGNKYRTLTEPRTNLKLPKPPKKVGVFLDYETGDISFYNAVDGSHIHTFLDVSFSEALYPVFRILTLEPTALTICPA
T1 sequence (O00481 30-254 limits assumed): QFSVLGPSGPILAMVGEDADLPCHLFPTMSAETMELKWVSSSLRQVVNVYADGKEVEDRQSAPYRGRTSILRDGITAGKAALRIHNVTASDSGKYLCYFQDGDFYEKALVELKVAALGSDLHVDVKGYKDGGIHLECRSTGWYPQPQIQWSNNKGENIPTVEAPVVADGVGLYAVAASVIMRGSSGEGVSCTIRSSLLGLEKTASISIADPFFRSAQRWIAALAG
T5 sequence (Q9NZQ7 19-239 limits assumed): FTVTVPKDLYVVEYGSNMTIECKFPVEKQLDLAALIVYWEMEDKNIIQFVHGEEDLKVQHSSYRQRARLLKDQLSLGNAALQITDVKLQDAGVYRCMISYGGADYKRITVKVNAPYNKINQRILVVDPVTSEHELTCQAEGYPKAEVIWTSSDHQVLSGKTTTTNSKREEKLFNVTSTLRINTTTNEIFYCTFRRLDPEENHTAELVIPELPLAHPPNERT

Row | Binder | Kd (recombinant human BTN3A1) [nM] | Kd (recombinant human PD-1) [nM] | Jurkat-PD-1 activation at 10 nM [1] | Jurkat-PD-1 activation at 100 nM [1] | MFI at 10 nM [2] [MFI] | MFI at 100 nM [2] [MFI] | MFI at 10 nM [3] [MFI] | MFI at 100 nM [3] [MFI] | Kd (recombinant human PD-L1) [nM] | MFI at 10 nM [4] [MFI] | MFI at 100 nM [4] [MFI]
1 | bsAb033 (bispecific antibody, IgG anti-BTN3A, one scFv anti-PD-1; not shown: IgG1 CH1-hinge-CH2-CH3) heavy (part 1 of 2): QVQLVQSGAEVKKPGASVKLSCKASGYIFTRYYMYWVKQRPGQGLEWIGEINPNNGGTKFNEKFKNRATLTVDKSISTAYMELSRLRSDDTAVYYCSREDDYDGTPFAMDYWGQGTLVTVSS heavy (part 2 of 2): GGGGSGGGGSGGGGSGGGGSQVQLVQSGVEVKKPGASVKVSCKASGYTFTNYYMYWVRQAPGQGLEWMGGINPSNGGTNFNEKFKNRVTLTTDSSTTTAYMELKSLQFDDTAVYYCARRDYRFDMGFDYWGQGTTVTVSSGGGGSGGGGSGGGGSGGGGSEIVLTQSPATLSLSPGERATLSCRASKGVSTSGYSYLHWYQQKPGQAPRLLIYLASYLESGVPARFSGSGSGTDFTLTISSLEPEDFAVYYCQHSRDLPLTFGGGTKVEIK heavy: QVQLVQSGAEVKKPGASVKLSCKASGYIFTRYYMYWVKQRPGQGLEWIGEINPNNGGTKFNEKFKNRATLTVDKSISTAYMELSRLRSDDTAVYYCSREDDYDGTPFAMDYWGQGTLVTVSS light: not shown | 0.067 | 0.786 | 1.6 fold-change to medium | 6 fold-change to medium | 584000 | 1.18e+06 | 194000 | 340000 | – | – | –
2 | bsAb052 (bispecific antibody, one Fab arm anti-BTN3A, two scFv anti-PD-1; not shown: IgG1 CH1-hinge-CH2-CH3; CH2-CH3 (Fc)) heavy (part 1 of 2): QVQLVQSGAEVKKPGASVKLSCKASGYIFTRYYMYWVKQRPGQGLEWIGEINPNNGGTKFNEKFKNRATLTVDKSISTAYMELSRLRSDDTAVYYCSREDDYDGTPFAMDYWGQGTLVTVSS heavy (part 2 of 2): GGGGSGGGGSGGGGSGGGGSQVQLVQSGVEVKKPGASVKVSCKASGYTFTNYYMYWVRQAPGQGLEWMGGINPSNGGTNFNEKFKNRVTLTTDSSTTTAYMELKSLQFDDTAVYYCARRDYRFDMGFDYWGQGTTVTVSSGGGGSGGGGSGGGGSGGGGSEIVLTQSPATLSLSPGERATLSCRASKGVSTSGYSYLHWYQQKPGQAPRLLIYLASYLESGVPARFSGSGSGTDFTLTISSLEPEDFAVYYCQHSRDLPLTFGGGTKVEIK heavy: GGGGSGGGGSGGGGSGGGGSQVQLVQSGVEVKKPGASVKVSCKASGYTFTNYYMYWVRQAPGQGLEWMGGINPSNGGTNFNEKFKNRVTLTTDSSTTTAYMELKSLQFDDTAVYYCARRDYRFDMGFDYWGQGTTVTVSSGGGGSGGGGSGGGGSGGGGSEIVLTQSPATLSLSPGERATLSCRASKGVSTSGYSYLHWYQQKPGQAPRLLIYLASYLESGVPARFSGSGSGTDFTLTISSLEPEDFAVYYCQHSRDLPLTFGGGTKVEIK light: not shown | 0.069 | 1.8 | 5.3 fold-change to medium | 7.6 fold-change to medium | 321000 | 785000 | 185000 | 366000 | – | – | –
3 | bsAb049 (bispecific antibody, IgG anti-BTN3A, one scFv anti-PD-1; not shown: IgG1 CH1-hinge-CH2-CH3) heavy 1: QVQLVQSGVEVKKPGASVKVSCKASGYTFTNYYMYWVRQAPGQGLEWMGGINPSNGGTNFNEKFKNRVTLTTDSSTTTAYMELKSLQFDDTAVYYCARRDYRFDMGFDYWGQGTTVTVSSGGGGSGGGGSGGGGSGGGGSEIVLTQSPATLSLSPGERATLSCRASKGVSTSGYSYLHWYQQKPGQAPRLLIYLASYLESGVPARFSGSGSGTDFTLTISSLEPEDFAVYYCQHSRDLPLTFGGGTKVEIKGGGGSGGGGSGGGGSGGGGSQVQLVQSGAEVKKPGASVKLSCKASGYIFTRYYMYWVKQRPGQGLEWIGEINPNNGGTKFNEKFKNRATLTVDKSISTAYMELSRLRSDDTAVYYCSREDDYDGTPFAMDYWGQGTLVTVSS heavy 2: QVQLVQSGAEVKKPGASVKLSCKASGYIFTRYYMYWVKQRPGQGLEWIGEINPNNGGTKFNEKFKNRATLTVDKSISTAYMELSRLRSDDTAVYYCSREDDYDGTPFAMDYWGQGTLVTVSS light: not shown | 0.101 | 0.856 | 1.3 fold-change to medium | 2.3 fold-change to medium | 460000 | 740000 | 175000 | 376000 | – | – | –
4 | bsAb056 (bispecific antibody, one Fab arm anti-BTN3A, one scFv anti-PD-1; not shown: CH2-CH3 (Fc); IgG1 CH1-hinge-CH2-CH3) heavy 1: GGGGSGGGGSGGGGSGGGGSQVQLVQSGVEVKKPGASVKVSCKASGYTFTNYYMYWVRQAPGQGLEWMGGINPSNGGTNFNEKFKNRVTLTTDSSTTTAYMELKSLQFDDTAVYYCARRDYRFDMGFDYWGQGTTVTVSSGGGGSGGGGSGGGGSGGGGSEIVLTQSPATLSLSPGERATLSCRASKGVSTSGYSYLHWYQQKPGQAPRLLIYLASYLESGVPARFSGSGSGTDFTLTISSLEPEDFAVYYCQHSRDLPLTFGGGTKVEIK heavy 2: QVQLVQSGAEVKKPGASVKLSCKASGYIFTRYYMYWVKQRPGQGLEWIGEINPNNGGTKFNEKFKNRATLTVDKSISTAYMELSRLRSDDTAVYYCSREDDYDGTPFAMDYWGQGTLVTVSS light: not shown | 0.065 | 2 | 1.5 fold-change to medium | 3.4 fold-change to medium | 519000 | 1e+06 | – | 334000 | – | – | –
5 | bsAb038 (bispecific antibody, IgG anti-BTN3A, one scFv anti-PD-1; not shown: IgG1 CH1-hinge-CH2-CH3) heavy (part 1 of 2): QVQLVQSGAEVKKPGASVKLSCKASGYIFTRYYMYWVKQRPGQGLEWIGEINPNNGGTKFNEKFKNRATLTVDKSISTAYMELSRLRSDDTAVYYCSREDDYDGTPFAMDYWGQGTLVTVSS heavy (part 2 of 2): GGGGSGGGGSGGGGSGGGGSEIVLTQSPATLSLSPGERATLSCRASKGVSTSGYSYLHWYQQKPGQAPRLLIYLASYLESGVPARFSGSGSGTDFTLTISSLEPEDFAVYYCQHSRDLPLTFGGGTKVEIKGGGGSGGGGSGGGGSGGGGSQVQLVQSGVEVKKPGASVKVSCKASGYTFTNYYMYWVRQAPGQGLEWMGGINPSNGGTNFNEKFKNRVTLTTDSSTTTAYMELKSLQFDDTAVYYCARRDYRFDMGFDYWGQGTTVTVSS heavy: QVQLVQSGAEVKKPGASVKLSCKASGYIFTRYYMYWVKQRPGQGLEWIGEINPNNGGTKFNEKFKNRATLTVDKSISTAYMELSRLRSDDTAVYYCSREDDYDGTPFAMDYWGQGTLVTVSS light: not shown | 0.071 | 1.9 | 1.5 fold-change to medium | 3.5 fold-change to medium | 588000 | 1.2e+06 | 160000 | 294000 | – | – | –
6 | bsAb047 (bispecific antibody, IgG anti-BTN3A, one scFv anti-PD-1; not shown: IgG1 CH1-hinge-CH2-CH3) heavy 1: EIVLTQSPATLSLSPGERATLSCRASKGVSTSGYSYLHWYQQKPGQAPRLLIYLASYLESGVPARFSGSGSGTDFTLTISSLEPEDFAVYYCQHSRDLPLTFGGGTKVEIKGGGGSGGGGSGGGGSGGGGSQVQLVQSGVEVKKPGASVKVSCKASGYTFTNYYMYWVRQAPGQGLEWMGGINPSNGGTNFNEKFKNRVTLTTDSSTTTAYMELKSLQFDDTAVYYCARRDYRFDMGFDYWGQGTTVTVSSGGGGSGGGGSGGGGSGGGGSQVQLVQSGAEVKKPGASVKLSCKASGYIFTRYYMYWVKQRPGQGLEWIGEINPNNGGTKFNEKFKNRATLTVDKSISTAYMELSRLRSDDTAVYYCSREDDYDGTPFAMDYWGQGTLVTVSS heavy 2: QVQLVQSGAEVKKPGASVKLSCKASGYIFTRYYMYWVKQRPGQGLEWIGEINPNNGGTKFNEKFKNRATLTVDKSISTAYMELSRLRSDDTAVYYCSREDDYDGTPFAMDYWGQGTLVTVSS light: not shown | 0.168 | 1.4 | 3.1 fold-change to medium | 8.3 fold-change to medium | 536000 | 866000 | 264000 | 364000 | – | – | –
7 | bsAb051 (bispecific antibody, one Fab arm anti-BTN3A, two scFv anti-PD-L1; not shown: IgG1 CH1-hinge-CH2-CH3; CH2-CH3 (Fc)) heavy (part 1 of 2): QVQLVQSGAEVKKPGASVKLSCKASGYIFTRYYMYWVKQRPGQGLEWIGEINPNNGGTKFNEKFKNRATLTVDKSISTAYMELSRLRSDDTAVYYCSREDDYDGTPFAMDYWGQGTLVTVSS heavy (part 2 of 2): GGGGSGGGGSGGGGSGGGGSEVQLVESGGGLVQPGGSLRLSCAASGFTFSRYWMSWVRQAPGKGLEWVANIKQDGSEKYYVDSVKGRFTISRDNAKNSLYLQMNSLRAEDTAVYYCAREGGWFGELAFDYWGQGTLVTVSSGGGGSGGGGSGGGGSGGGGSEIVLTQSPGTLSLSPGERATLSCRASQRVSSSYLAWYQQKPGQAPRLLIYDASSRATGIPDRFSGSGSGTDFTLTISRLEPEDFAVYYCQQYGSLPWTFGQGTKVEIK heavy: GGGGSGGGGSGGGGSGGGGSEVQLVESGGGLVQPGGSLRLSCAASGFTFSRYWMSWVRQAPGKGLEWVANIKQDGSEKYYVDSVKGRFTISRDNAKNSLYLQMNSLRAEDTAVYYCAREGGWFGELAFDYWGQGTLVTVSSGGGGSGGGGSGGGGSGGGGSEIVLTQSPGTLSLSPGERATLSCRASQRVSSSYLAWYQQKPGQAPRLLIYDASSRATGIPDRFSGSGSGTDFTLTISRLEPEDFAVYYCQQYGSLPWTFGQGTKVEIK light: not shown | 0.095 | – | – | – | 340000 | 792000 | – | – | 0.033 | 578000 | 597000
